Measured values published in patent publication US20170247440A1 (Hoffmann-La Roche, published 2017).

B1: antibody 0060 (antibody, V domains shown)
VH: EVQLLESGGDLVQPGGSLRLSCAASGFTFRSYAMSWVRQAPGKGLEWVSGISAGGGYIYYADSVTGRFTSSRDNYKNTLYLQMNRLRVEDTAVYYCARFYPGYNSDTYYYDGMDVWGQGTTVTVSS
VL: not shown
notes: Human antibody from a human Ig locus transgenic rabbit; IgG
B2: antibody 0064 (antibody, V domains shown)
VH: EVQLVESGGGLVQPGGSLRLSCAASGFTFSSYWMSWVRQAPGKGLEWVSTISDGGGTTSYADSVKGRFTISRDNSKNTLYLQMNSLRAEDTAVYSCAESGGATDYLFDYWGQGTLVTVSS
VL: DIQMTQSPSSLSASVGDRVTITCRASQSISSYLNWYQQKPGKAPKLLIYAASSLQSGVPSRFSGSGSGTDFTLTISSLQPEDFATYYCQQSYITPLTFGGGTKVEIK
notes: as for B1
B3: antibody 0058 (antibody, V domains shown)
VH: EVQLVESGGGLVQPGGSLRLSCAASGFTFSSFWMTWVRQAPGKGLEWVASISAGGGITHYPDSVKDRFTVSRDNAKNSLYLQLNSLRAEDTAVYYCAESGGDIYSDFDYWGQGTLVTVSS
VL: not shown
notes: as for B1

How the values were obtained:
human PDGF-BB [1] = molecular target: T1, human PDGF-BB (human, UniProt P01127 82-190); assay: SPR, apparent KD (avidity), IgG on immobilized human PDGF-BB (Example 17)
T1 construct: Bought recombinant protein (Cell Signaling 8921BF or R&D Systems 220-BB); also called huPDGF-BB; recombinant human PDGF-BB
Description: (§1) The binding analysis was carried out using a surface plasmon resonance spectroscopy-based technology applying a BIAcore B4000 system (GE Healthcare). The antigen human PDGF-BB (Cell Signaling, Cat. No. 8921BF) was immobilized at a concentration of 1 μg/mL in PBS, 0.1% BSA, 0.05 Tween using amine coupling chemistry on a C1 sensor chip (GE Healthcare, Cat. No. BR-1005-35). Anti-PDGF-BB antibody in increasing concentrations was applied in 10 mM HEPES pH 7.2, 150 mM NaCl. Utilizing a read out time of 180 sec. association phase and 600 sec. dissociation phase the apparent kₐ and apparent kd were calculated. The apparent KD (avidity) was calculated using the BIAcore T200 v2.0 fitting software.

cynomolgus PDGF-BB = molecular target: T2, cynomolgus PDGF-BB (cynomolgus, UniProt A0A2K5UX81 82-190, Disulfide-linked homodimer of two identical B chains; one copy is given.); assay: ELISA, cynomolgus PDGF-BB (Example 10)
T2 construct: also called cynPDGF-BB

human PDGF-BB [2] = molecular target: T1, human PDGF-BB; assay: cell-based or functional assay
human PDGF-BB [3] = molecular target: T1, human PDGF-BB; assay: cell-based or functional assay; remark: listed apart in the source
human PDGF-BB [4] = molecular target: T1, human PDGF-BB; assay: ELISA, immobilized human PDGF-BB (Example 9)
Description: The binding analysis was carried out using an enzyme-linked immunosorbent assay (ELISA)-based technology. The antigen human PDGF-BB (Cell Signaling, Cat. No 8921BF) was immobilized at a concentration of 125 ng/mL in 25 μL in PBS, 0.5% BSA and 0.05% Tween on a 384 well microtiter plate (Thermo Scientific, Cat. No. 464718). Every of the following steps was followed by a washing routine of 3 times 90 μL PBS with dispense and aspiration: 1) blocking step: saturating unbound surface (1 hour, 2% BSA); 2) anti-PDGF-BB antibody in increasing concentrations for 1 hour; 3) detection antibody, dilution=1:3000 (ECL anti-rabbit IgG-POD, NA9340V+ECL anti-human IgG-POD, NA933V or alternatively for murine antibodies ECL anti-mouse IgG-POD; NA 9310V). 20-30 min. after adding the substrate 3,3′,5,5′-tetramethylbenzidine (TMB, Piercenet, Cat. No. 34021) the optical density was determined at 370 nm. The EC₅₀ was calculated with a four parameter logistic model using GraphPad Prism 6.0 software.

human PDGF-BB [5] = molecular target: T1, human PDGF-BB; assay: SPR, IgG on immobilized human PDGF-BB (Example 17)
Description: as §1

human PDGF-BB [6] = molecular target: T1, human PDGF-BB; assay: inhibition ELISA: biotinylated huPDGF-BB binding to immobilized Fc-tagged huPDGF-Rβ (Example 15)
Description: The protein-protein interaction inhibition analysis of human PDGF-BB to the human PDGF-BB receptor was carried out using an enzyme-linked immunosorbent assay (ELISA)-based technology. The human Fc-tagged PDGF-BB receptor protein (RnD, Cat. No. 385-PR-100) was immobilized at a concentration of […] in 25 μL in PBS, 0.5% BSA and 0.05% Tween on a 384 well microtiter plate (Thermo Scientific Cat. No. 464718). Every of the following steps was followed by a washing routine of 3 times 90 μL PBS with dispense and aspiration: 1) blocking step saturating unbound surface (1 hour, 2% BSA); 2) 15 μL anti-PDGF-BB antibody in increasing concentrations was incubated with 15 μL biotinylated human PDGF-BB (Cell Signaling, Cat. No. 8921BF) at 75 nM in a volume of 30 μL for 1 hour; 3) detection was achieved using peroxidase-labeled streptavidin (Roche Diagnostics GmbH, Mannheim, Germany, Cat. No. 11089153001). 20-30 min. after adding the substrate 3,3′,5,5′-tetramethylbenzidine (TMB, Piercenet, Cat. No. 34021) the optical density was determined at 370 nm. The IC₅₀ was calculated with a four parameter logistic model using GraphPad Prism 6.0 software.

human PDGF-BB [7] = molecular target: T1, human PDGF-BB; assay: SPR, IgG, apparent KD (App. KD**)
human PDGF-BB [8] = molecular target: T1, human PDGF-BB; assay: SPR kinetic screening, IgG on immobilized human PDGF-BB (Example 27)
Description: Binding of anti-PDGF-BB antibodies to human PDGF-BB was investigated by surface plasmon resonance using a BIACORE T200 instrument (GE Healthcare). Around 20 resonance units (RU) of recombinant human PDGF-BB (5 μg/ml; ordering code 220-BB; R&D Systems) were coupled on a Series S C1 chip (GE Healthcare BR-1005-35) at pH 4.0 by using an amine coupling kit supplied by GE Healthcare. Running buffer for immobilization was HBS-N pH 7.4 (10 mM HEPES, 150 mM NaCl, pH 7.4, GE Healthcare). For the following kinetic characterization, running and dilution buffer was HBS-P pH 7.4 (10 mM HEPES, 150 mM NaCl, 0.05% Surfactant P20, pH 7.4, GE Healthcare). The flow cell was set to 25° C.—and the sample block set to 12° C.—and primed with running buffer twice.

T2 sequence (A0A2K5UX81 entry or part of it limits assumed): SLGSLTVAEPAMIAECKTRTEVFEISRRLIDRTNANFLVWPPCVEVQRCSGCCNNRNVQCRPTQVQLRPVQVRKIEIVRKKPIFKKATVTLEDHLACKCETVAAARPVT
T1 sequence (P01127 82-190 limits assumed): as the sequence (A0A2K5UX81 entry or part of it limits assumed) above, with V7I counted along it

Row | Binder | Kd (human PDGF-BB [1]) [nM] | EC50 (cynomolgus PDGF-BB) [µg/mL] | Balb-C3T3 Proliferation % neutralization (human PDGF-BB [2]) [%] | Balb-C3T3 Proliferation IC50 (human PDGF-BB [2]) [nM] | Pericytes Migration % neutralization (human PDGF-BB [2]) [%] | Pericytes Migration IC50 (human PDGF-BB [2]) [nM] | Pericytes Proliferation % neutralization (human PDGF-BB [2]) [%] | Pericytes Proliferation IC50 (human PDGF-BB [2]) [nM] | IC50 Phospho-Inhibition (human PDGF-BB [3]) [µg/mL] | IC50 Proliferation 3T3 (human PDGF-BB [3]) [µg/mL] | EC50 (human PDGF-BB [4]) [µg/mL] | koff (human PDGF-BB [5]) [s⁻¹] | kon (human PDGF-BB [5]) [M⁻¹ s⁻¹] | IC50 (human PDGF-BB [6]) [µg/mL] | Kd (human PDGF-BB [7]) [nM] | koff (human PDGF-BB [8]) [s⁻¹] | t½ (human PDGF-BB [8]) [min]
1 | B1 | 0.0782 | 0.0415 | 90 | 0.29 | 100 | 0.013 | 100 | 0.6 | 0.0016 | 0.0363 | 0.0375 | 2.9e-05 | 370000 | 0.0554 | 0.021 | 0.000264 | 44
2 | B2 | 0.0769 | 0.00741 | 100 | 0.024 | 100 | 0.14 | 100 | 0.08 |  | 0.062 | 0.016 | 5.5e-05 | 720000 | 0.0343 | 0.021 | 0.000135 | 85
3 | B3 | 0.062 | 0.0034 | 100 | 0.24 | 100 | 0.002 | 100 | 0.08 | 0.0029 | 0.0793 | 0.0401 | 0.00011 | 1.8e+06 | 0.0425 | 0.046 | 0.000291 | 40
